Tests used:
Test in all cases: LC-MS of Fabs digested from co-expressed IgG
[1] = target: ustekinumab heavy chain, CH1 design 1039, knob CH3 (human)
[2] = target: ustekinumab heavy chain, WT CH1, knob CH3 (human)
[3] = target: panitumumab heavy chain, WT CH1, hole CH3 (human)
[4] = target: panitumumab heavy chain, CH1 design 1039, hole CH3 (human)
[5] = target: panitumumab heavy chain, CH1 design 767, hole CH3 (human)
[6] = target: panitumumab heavy chain, CH1 design 2529, hole CH3 (human)
[7] = target: panitumumab heavy chain, CH1 of designs 1148 and 454 (L145S), hole CH3 (human)
[8] = target: panitumumab heavy chain, CH1 design 367, hole CH3 (human)
[9] = target: panitumumab heavy chain, CH1 design 1443, hole CH3 (human)
[10] = target: panitumumab heavy chain, CH1 of designs 1328 and 838 (G166K, T187K), hole CH3 (human)

% of observed Fabs (co-expressed: m40) [1] [%]	% of observed Fabs (co-expressed: m3) [2] [%]	% of observed Fabs (co-expressed: m3) [3] [%]	% of observed Fabs (co-expressed: m38) [3] [%]	% of observed Fabs (co-expressed: m3) [4] [%]	% of observed Fabs (co-expressed: m25) [5] [%]	% of observed Fabs (co-expressed: m11) [6] [%]	% of observed Fabs (co-expressed: m7) [2] [%]	% of observed Fabs (co-expressed: m17) [2] [%]	% of observed Fabs (co-expressed: m21) [2] [%]	% of observed Fabs (co-expressed: m23) [2] [%]	% of observed Fabs (co-expressed: m25) [2] [%]	% of observed Fabs (co-expressed: m27) [2] [%]	% of observed Fabs (co-expressed: m30) [2] [%]	% of observed Fabs (co-expressed: m32) [2] [%]	% of observed Fabs (co-expressed: m36) [2] [%]	% of observed Fabs (co-expressed: m34) [7] [%]	% of observed Fabs (co-expressed: m13) [8] [%]	% of observed Fabs (co-expressed: m3) [9] [%]	% of observed Fabs (co-expressed: m17) [10] [%]	Substance
18	21	41	54	–	–	–	–	–	–	–	–	–	–	–	–	–	–	–	–	panitumumab light chain, WT Cκ
–	–	8	–	10	10	18	50	50	41	45	41	40	40	41	45	10	8	8	6	ustekinumab light chain, WT Cκ
